Experimental data: the DeepSol protein solubility set

Assay: soluble on expression in E. coli; label from the status in PepcDB or PDB records

| Sequence | soluble on expression in E. coli |
| --- | --- |
| MGSDKIHHHHHHMENLIKIDTVDQYNKMFGLETLHPLVSVVDLSKSETWPTNFRVNYGIYGLFLKDTKCGDIRYGRQYYDYQEGTVVGFAPGQVTGIELKDGTRPLAHGLLFHPDLIRGTALGRDIKRYSFFSYESNEALHLSEEEKGIFVDCLRKIQIELEHSIDKHSKRLIAMNIELLLDYCLRFYDRQFTTRAETNKDVLVRFERLLDEYLQSDLLRQEGLPTVRYFAEKICLSPNYFGDLIKKETGKTAQENIQDRIISLAKEWIVGTNKTVSQIAYDLGFQYSQHFSRIFKKTVGCTPNEYRKSQMS | not soluble |
| MTILFISDLHLSPLRPDITDCFIDFMQNEAIHAEKLYVLGDLFEFWIGDDDNSPFNVSIKNEFKALTEKGVKCYFIQGNRDFLLNKRFCKETGVELLDDHTVIELDGEKVLIMHGDTLCIDDIKYQEFRAKVHKPWLQWVFNRIPLFIRQRIVKNVQDKIKEKKQTKTLCIMDVTQSEVERVMQEEGVQRLIHGHTHRPDTHTFMSNNKEMTRIVLGDWYSQGSILEYSDKIYSLHKKEFK | not soluble |
| MTKPFAPASARNRDPILSVLQRYFADRQHVLEIGAGTGQHAVHFAAAMPWLRWQASDHPDHLPGMRQWLDEAALPNTPPPVALQAVLTPAPGLAPAPPLPPVQAGTPAGYDAIYSANTLHIMGWPQVQALFAGLPAVMAPQAVLVIYGPFNRDGEFTSDSNRDFDAMLRARDAASGIRDAAEVDALAAQVGLQLVDDVDMPANNRCRVWQRALEHHHHHH | soluble |
| MIVSAIAANALLESVTKFHCGVIYDYSTAEYVSYRPSDFGAYLDALEAEVARGGLIVFHNGHKYDVPALTKLAKLQLNREFHLPRENCIDTLVLSRLIHSNLKDTDMGLLRSGKLPGKRFGSHALEAWGYRLGEMKGEYKDDFKRMLEEQGEEYVDGMEWWNFNEEMMDYNVQDVVVTKALLEKLLSDKHYFPPEIDFTDVGYTTFWSESLEAVDIEHRAAWLLAKQERNGFPFDTKAIEELYVELAARRSELLRKLTETFGSWYQPKGGTEMFCHPRTGKPLPKYPRIKTPKVGGIFKKPKNKAQREGREPCELDTREYVAGAPYTPVEHVVFNPSSRDHIQKKLQEAGWVPTKYTDKGAPVVDDEVLEGVRVDDPEKQAAIDLIKEYLMIQKRIGQSAEGDKAWLRYVAEDGKIHGSVNPNGAVTGRATHAFPNLAQIPGVRSPYGEQCRAAFGAEHHLDGITGKPWVQAGIDASGLELRCLAHFMARFDNGEYAHEILNGDIHTKNQIAAELPTRDNAKTFIYGFLYGAGDEKIGQIVGAGKERGKELKKKFLENTPAIAALRESIQQTLVESSQWVAGEQQVKWKRRWIKGLDGRKVHVRSPHAALNTLLQSAGALICKLWIIKTEEMLVEKGLKHGWDGDFAYMAWVHDEIQVGCRTEEIAQVVIETAQEAMRWVGDHWNFRCLLDTEGKMGPNWAICH | soluble |
| MHGITIDSGRALDMLASMIEEAEQQYQAHMRETPHYEPASAGEGFVAYGESINSLFQLLHQRNAQRLELIKLGLEDARQRVHDLSNTDTEFAARLGAVE | not soluble |
| MKIKLEHGAGGELMEELIRDVILKNLTLNSAGGIGLEALDDGATIPFEGKHLVFTIDGHTVRPLFFPGGDIGRLAVSGTVNDLAVMGAKPLALASSLIIGEGFDSDKLEEILKSMNRTAKEVPVPIITGDTKVVEDNIEIFVITAGIGIAEKPISDAGAKVGDLVLVNGTIGDHGIALMSHREGISFETELKSDVAPIWDVVKTVADAIGWENIHAMKDPTRGGLSNALNEMARKADVGILVRESDIPIRPEVKAAGDMLGISPYDVANEGKVIMVVDREYAEDALEAMRKTEKGKDAAIIGEIIKDYPGKVILETGIGGRRFLEPPIGDPVPRVC | soluble |
| MSNYSVSLVGPAPWGFRLQGGKDFNMPLTISSLKDGGKAAQANVRIGDVVLSIDGINAQGMTHLEAQNKIKGCTGSLNMTLQRASAAPKPEPVPVQKGEPKEVVKPVPITSPAVSKVTSTNNMAYNKAPRPFGSVSSPKVTSIPSPSSAFTPAHATTSSHASPSPVAAVTPPLFAASGLHANANLSADQSPSALSAGKTAVNVPRQPTVTSVCSETSQELAEGQRRGSQGDSKQQNGPPRKHIVERYTEFYHVPTHSDASKKRLIEDTEDWRPRTGTTQSRSFRILAQITGTEHLKESEADNTKKANNSQEPSPQLASSVASTRSMPESLDSPTSGRPGVTSLTTAAAFKPVGSTGVIKSPSWQRPNQGVPSTGRISNSAAYSGSVAPANSALGQTQPSDQDTLVQRAEHIPAGKRTPMCAHCNQVIRGPFLVALGKSWHPEEFNCAHCKNTMAYIGFVEEKGALYCELCYEKFFAPECGRCQRKILGEVINALKQTWHVSCFVCVACGKPIRNNVFHLEDGEPYCETDYYALFGTICHGCEFPIEAGDMFLEALGYTWHDTCFVCSVCCESLEGQTFFSKKDKPLCKKHAHSVNF | soluble |
| MKTYSEARARLRWYQGRYIDFDGWYGYQCADLAVDYIYWLLEIRMWGNAKDAINNDFKNMATVYENTPSFVPQIGDVAVFTKGIYKQYGHIGLVFNGGNTNQFLILEQNYDGNANTPAKLRWDNYYGCTHFIRPKYKSEGLMNKITNKVKPPAQKAVGKSASKITVGSKAPYNLKWSKGAYFNAKIDGLGATSATRYGDNRTNYRFDVGQAVYAPGTLIYVFEIIDGWCRIYWNNHNEWIWHERLIVKEVFLEHHHHHH | not soluble |
| TSPTTTSTGTGTGSSTDQAISPLVEGENAPEVTTAKLGFIALTDAAPLIIAKEKGFYAKYGMPDVEVLKQASWGTTRDNLVLGSASGGIDGAHILTPMPYLITMGTVTDGKPTPMYILARLNVNGQGIQLGNNYKDLKVGTDAAPLKEAFAKVTDPKVAMTFPGGTHDMWIRYWLAAGGMEPGKDFSTIVVPPAQMVANVKVNAMESFCVGEPWPLQTVNQGVGYQALTTGQLWKDHPEKAFGMRADWVDQNPKAAKALLMAVMEAQQWCDQAENKEEMCQILSKREWFKVPFEDIIDRSKGIYNFGNGQETFEDQEIMQKYWVDNASYPYKSHDQWFLTENIRWGYLPASTDTKAIVDKVNREDLWREAAQALEVPADQIPSSPSRGIETFFDGITFDPENPQAYLDSLKIKSIKA | soluble |
| MGSDKIHHHHHHMYIEEIKRVLSDQRDVLEEKMSRKLVERDVPNLLKYLEVPNALAILGVRRSGKSTLSLLLLKRKKFAYVNFDDERFYNLNIGDLNKVLQAIYELYGVDVDYIVLDEIHNVKGWELFVSRLRDVKKLIITGSNSKMLSGELATYLTGRHSDYILFPFSFQEYLKYKEVKVEYFSTRVISTLKNELEKYTEVGGFPEALMLGKEQVNVIYNDILFKDIVSRYKIREIEKFREFARTVISYYSNEISLSSIAKILGLNKRTVEKWASGLREAYLTFFIPRYGEKLKQRLTYNKKVYVVDVGIVSNLAIKGKDKGRIIENLVAIKLLRELQGEEKLYYMRNNYEVDFYDEKNSRLIQVTYTSDKIENREIRGLIEGYRLTKAKKLLIITWDLEEKIQVEGVNIEVLPLYRFLLE | not soluble |
| MPLQQTLGVDCQTAADAGGEPHCFAGPVRERRMDSVLVIGGGRFIGRHTVTEFRDAGYDVTMLTRGRRQNPFTNAEVAHIEGDRRERDTLETARERVNPDVVVDCVAYFPEDVRVATDVFADVGAYVYISSGAAYGAERTPKREGETPLAGCTAEQATTDSAETYGPRKAEGDREVFAAAEDGVQAMSVRPTVVYGPYDYTERFAYWVDRVAEYDRVVVPSDGLSLWQMAYVEDVASALRLVAERGTAGEAYNVGDEHAPTLREWVDLLARVHETDVETIGVGERELRAAGLAPDDFPIYRDSPHLLSTAKLRGLGWSSTPHETALAVTVAEHLENDRTGREFGPDRDTEAALIDRLTE | not soluble |
| MGSDKIHHHHHHMIDFLLLKSLHSLLGLTITVCDQNFSVIREYKSEKTISLFYNHYLILSNFSKTQHDFLFHYGSLGELFLVHHIQQYYIIIGPWRSNVIDPLLLKKKLTETQINASEQDYFIDRLSQLPFFSLSQIRELLIVTNYCLTGVVKDKLSEPLHYYTKGWSNSFDLDKIKQFSKQNMSSYKYQYHFENNILKAVKSGSEFLLKETVEQFSNSIVPIISGDELRSEKNYSIMIYDRLSQATIQAGLDIETAYRARDRFIKENESTISLNEVLKLRDTAILFYTQQVHSLKKHLETPHSQTIVAVIRYLENNLNRFIKTEEIAKECHMSESKLRKLFKQEKHITIQQYFLNLKIEAAKQLLDENKKVEEVSNLLGFSTSSNFSRTFKKIVGISPLEYKQKPKTI | not soluble |
